Experimental data reported in the domain aggregation screens of Martell et al. (2025).

Experiment: soluble fraction after stress (log2 fold change); higher = more stays soluble; pooled small domains, quantitative proteomics
Conditions: stress: 50 degC
Method in brief: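 The stress applied to every library was 50°C. These custom libraries of small protein domains were pooled and measured at high throughput with quantitative proteomics as the read-out. Aggregation propensity is expressed as the base-two logarithm of the fold change in how much of each protein remains soluble. The higher the value, the more of that protein stays in solution.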

Sequence | soluble fraction (log2)
HMGEPQAWNELIGNLLRQWEARQTGWTPARKREALDRVLGAADPAALYTRLQGLLKSWTQAMTDADA | -1.7
HMETVVTEVKTTDVVNIRTSDSETADKLSKAAIGDTFPLLEERGNGWSKVAYNGEEAFIKSDYLEPSKTE | 0.42
HMQRDERYVYHTVLAGETIYSLSRKFNVTMDELLESNPALRSGVLTTGSEIRVLKAQMAQNFD | -0.376
HMRLANGIGTVYKLSGNRRNPYIVRKTTGWEIDEESGKAKQKYITIGYAPTRAKGLEMLMDYNKNP | -0.428
HMTGKVSHGERKSVLVSLAGSMRARGMSIDAVRAGLYADNEKRFDPPLDERDIEDVLNSAKKWGDP | -0.322
HMNKTQLQIEDEVLKPLIAEIFSKSKGRFGARKIRSKLMGLGYTASERRILRLMKELGLSSAG | -0.378
HMRYFDDEELNNKFLEFLSMRKKIRKPVRTDRALKALLKKLHELSGGDVGLMKQIIDQSLDKEWLGLFEL | -0.422
HMQLYSLEVLSKKKVDLIENNKNLINLYFNKENGEYSYRLIFKNRKELYQVKDTLDNSSDVVSIKLDL | -0.863
HMIVDYPSFVGKTKQELEKWAKENNIIIRYRQLSVTASDKVKAQLPATTTYKRIMKGSSIEVELEL | -0.776
HMKAETILAIPENQPERLFPNNEDEARKIYRDLAREWHTDRNKSPKAQDVFSHLSKLYDIVIDRIKNKTWT | 0.152
HMGALAITPDFVGQTREEAERFLRDLDLSFDIGGKGDRILRQEPVAGQRMNLDQPMKLWVGSMNA | 0.0609
HMKNIINLVIDGELHGKRIDAVIAQKNDSLSRTRIKNLVINGNLSINDEIVSDPSKKIYKDDKVSLTIPLP | -0.058
HMDISKTLGKNPLLIIDNIEYRGKTLDEITAMTGVKRFENIDIYGSEEAMKTYGEKAKDGVIIAYTT | 0.0561
HMRTYDPQAVELNNKALELINQGRLDSALLVYDQSIKTDKTYYFPHIGKSIIYMRKKDWNKAFEETQQAIK | 0.18
HMLTGADAEKATAAAQAEFPGGTVLRVETDADGTYEAHVRKADGTEVEVKMDKDFKVTSVEE | 0.0905
HMFTEEQMDWLRLIKDHIVASLSILPEDLELTPFDRKGGLLGFYDAFGDEYEKILQEMNEELVA | -0.588
HMLDEIAGQKVRVLEEINNSEGTGKVMYRGVEWMARSVDDAVMAKDSIVTVQSISGVKLMVT | -0.0685
HMKQLRVLGIVKAGSILKNSDGSIEFVIEDSGKSLLVKYKGVIPDIFKDGVEAVVEGDLRGSVFNADKLF | -0.75
HMTFSDKIRELRKQKGVSQAVVAEYLGITKQAYSLYETGKREPDFDSLLKLAEYFGTDTDSLLY | -0.309
HMVVVMNADAEADEIKRVKWNLEQMLFRTQVIYGVKRIVIGAIGDQREVDLSEIEQMPKVDKIVRISK | -1.4
HMSIYMNIYNEFKKYIIANVYKYDDKLPSVRSIALEYGINPNTVQRAFQLLEDEGYIKTISKKGVYVNYR | -0.781
HMGDTVSGTMLNLKPGVRVVHQIFGPGRVEETTGASLAEFRVTVRFEQKGLKTLLLQYAALQVINSEN | -0.795
HMKQVSDTGAIDAAIREVMDANPDKVAEYRSGKDKLFGFFVGQIMRAMAGKAAPVVVNDRLKALLD | 0.355
HMSSEMATLRSIVDNKQAEKVHGMMVDMFTASAMVQVYDKVNDENQAKMREMLKTQKGFQRMADFALSKI | -0.172
HMTLPEKSKRLFSQDDFWDQIFYRIGEGQSLREVSKYYKIPYTTIHDRIHSDEGIKLKYLEALTS | -0.71

Sequence | soluble fraction (log2)
HMGVTDSSYNVLRRQILEMLSVQQRTPADLARLIEADKEEIAAVIRFLLDKGEIQMEDGMLQTK | 0.0683
HMQPQIDFEIDVEVRASSLRIVAAPNSDVLVATVGRGEHVVQLTYPKDGWVMIRTADDRVGFVPESLLL | -0.255
HMYRWSEEIFEKLRSDIMAALDLSREQNDEEIYRFIETEVEEYSQNNLLTLKEREQLEHLLFNSL | -1.3
HMEHPNNTELTQKLELGTELMQYGDYNYALKVFNNVIDSDPEWSEAWNKRATVYFLMSQFTDSLSDIDRV | 0.32
HMNEAVVVPDVKGLTLDEADEFFKNSKLRYNVVDSVFSKDVAPGAIVELVPVAGSKVKENRIVFVTINAQ | -0.17
HMVLGSSVAMGQKIGDSDLTWVEVPLSSAFDRFLSEPEWRGSSDLVAARLLEAGVFLTEDDVVE | 0.0949
HMVVQTELVRISITSLSGEDIRRLVQIKVVGATIEPFEGGGFLITGTAEQIAKAKDFLNSMSTEF | -0.855
HMRLTTTPKTARGLTTMNRIIRAAEVEFGRKGYHYTGITDIAQRAKVASGTIYLYFTDKYSLYVHLLT | 0.246
HMTMGAAEAQALKDEALELYRTGGTQEDVVRAIEMYEQAAEAGNAQAASDLAYLKANGVYETAMNN | 0.268
HMVLSKGAKELLDFIMREGEVTTSKVVQKFGGSAQNASAKLKKLYATGLILGSKAVAESGGLEFVYKA | 0.393
HMLSAEAAAARTAISTLSEDQQRVLGLSIQRGLVHEQIARATGLPLGTVKTHIRRGLIKVREALEAQAAG | -0.00728
HMRKTIQDFLSSNKVDIAKLLTLALEKTKEDLYKNLSYNLTNKELEKLKLLIKKREQGIPFAYLS | -0.0368
HMEKERYDTGIGELNRVLGGGLVKGSLILISGDPGIGKSTLLLQTANNISKKYGKVLYVSGEESEEQIKIR | -0.319
HMADKNIIGVLSAADNLGKVRITTANGEKYIITVPDGLSDIVKTYWEEEVSVKYVIEKRRKILVDIDG | -1.67
HMESSSQLGFELARLVESGNDEEARALVQAKELSEADERKWLYHLGNLLHAAGRPLQASAIWREVGT | 0.0628
HMKSQSIFNVKKGDTLSHIAVHVLKKNKQKVTPEAINKMVSNIAFRNKIKNPDLIFPGQKLVLEY | 0.117
HMSYDAINGYEPSDLRGSLTLEQTASMLNLPLTDVYARLGLPANYPSGATLKDGAADMGMGLSDFKHQLF | -0.0605
HMQSEESTHIGERMLNQALRAMHVEPSAVKEKQWEKLIRDYSVKNKQDILTDIGLGKRQSVMVAHQLLAI | 0.0574
HMSDKPRYYINGNTLFISDKSVKKVLFSDLSGRSILHTTETAINIATFRGAHILTVIYTDGSTKSEVIF | -1.29
HMLEPEVLDLIGQVKSVHHFSVTQSHQLEKLVRHAHTLGFEIAELKSLLASSPNAKSLLSSLDQKLEPLRM | -0.909
HMITANNYFNEVERIGVETLPETLRKGHDLVVRSTNSGTNWSNYQNNESIRKVIDLYLQKLNEYVSTST | 0.131
HMSEYVIVTGEKVNLRVGPGMDYEIAGQVVKGDKLELLASEGDWSKVKTGSGSIYYISSSLVQKA | -0.238
HMAADWTAIKLAYVNGGMSMRELAQRFHVGAAGLMKRAAKEGWEAERQQNSAKVSNAAQMLIN | 0.33
HMSDPTDRLVLEAALKALGEEERQVVLLHAASGLKHREIARDLGLPLSTVLSRYSRALKKLQRYLTEEGVH | -0.77
HMSSDEDELESIIKRVFADNPIELERLQNGEDKLIKFFMGLVMRQTKGKYPPKIIIDLLNKS | -0.411

Sequence | soluble fraction (log2)
HMDLDPNKPAIPIAYPRVLLNIMAEKGFSRTEVLAGSGLADSVFDKPDHRITPAQFLFILMNSFYLS | -0.601
HMQVFDSNEIDEVVKKVIENNPQAVADFKKGKSNALQFLAGQVMRETKGRFNPNVVQERIRLLLT | 0.458
HMGVEVEVPNVKGKLVADAEYELGLAQLTPVRTDSAYNRNLPPGTVLEQLPASGSHVKEGREIYLTINST | 0.264
HMWTPLVVAVLIGGTHRFGELRAAVGGITPKVLTETLRSMERDGLVVREQTPGVPPRVDYALTPLGA | -0.319
HMNNSDIDITVGKNSISINNPNRTNIIIYSSNGMLIDSSKNASYKRNLPSGIYIVKSGSSTHKVIV | -0.148
HMDTETLIDKYQLNASEAAVLRFMDKNRDSLRDLGIRDVARASYVSTATIVNMAKKIGYSGYSELVFAYGS | -1.09
HMSAEDYLERIHELIESKGTAHVADIAQSLGVGKPSVTSMVQKLADEGYLNYEKYRSLTLTDSGRSIA | 0.105
HMTVPDVKGMGARDAVFLLETLGFKVRINGIGQVYEQSIDPGKSYSKGEFISLRL | -0.51
HMIDHLPPQRAAVLAFLQRELVAGRSPSLAEIALAFGFASRNAAQKHVQALVADGLLEQATGRSRGLRLPG | -1.67
HMPFDRTVQLAGARARQLQALPRYREVLRLLDEGMNPREIGQVLDPPVTRQRASALIQQAKRAQMLGLFED | -0.857
HMKHKGILTTWNDDRGFGFITPKEGKEPVFVHISAFARGQGRPVLNASLTYRLVRDDQQRPRAEAVRL | -1.15
HMHKAVVGPPNARKLAVTYGFKRWPALVFFRDGKYLGAVDGLRLWADLVREADEIMHSEPHYP | -0.166
HMEDKPITKEQKQAMFALLREHFSGDEGNAVYTAVLEREGLAPGDKIMSSVYDRLIDGINEAIRQKLEAGA | 0.00629
HMSIAEMSGARKSAILLLALDEDSAAEIFKYLSAGEVQEISMEMAKLNQVSHDDMKAVLEAFHKETEEFV | -0.542
HMGTIEQAFKGKAPGSAHLYDRARAVLAGGVTHDTRIHAPFPIMVQRALGARKWDVDGNEYIDY | 0.0863
HMLNDTGAIRAAVEEVLAANEKSVNEYKGGKTQAFQYLIGQSMRALRGKAPAQEVTKLLKELLG | -0.263
HMADLIIMSSDATEKQVDKVINKIKNMGFNVNISKGTEKTIIGIIGDTRGISDEVFKIMPGVIEVISILRD | -0.39
HMEPDEQAVKALIAEIDKLSKEKLTLKHEKKLKELREIYDDFTEEEKKLVTNYDILVKMEKRMEVLKKQEG | 0.111
HMFPNLTNEEQQVMKVLAKTNDLQINMLSVQSNLPIARLTALLFSMEMKGVVKTLAGGVYHLL | -3.23
HMHPKTPDELLALMSEEQRGQIEQLAKLVLMAVSYSGASYYDAVTTMYPRMSEERRRIITHVLNTASP | -0.652
HMGASFITSSKDNAINIRESATTDSKVIETIKNGEILESTEKSGDWHKVTYYNSEIKKSFTGYIHNSQLK | 0.168
HMYAGTWISESGQWKYRNDDGSFAKGWFQDLDSRWYYFDANGHMLSDTLTPDGYRLGEDGAWVND | -0.638
HMTKQRSIILDLLKANQDRHLTAEEMLELLNQNHTPVSKATLYRYLDMLVSQNAVRKFIIDDQPSAGYQYL | -1.34
HMKVKEYKLVDWISTFTKNEGYGISQKAAMLLAEFLGDDLSRIANEIEKLKLLVEKGTTINDVHIEENI | -0.797
HMGGNVYAYRLTASVKSGEQIPANKIEKVKMLSSDLPTNYVPDTVNVTAYKSKLDLQAGTILSTSLLYEN | 0.0242
